Source: article PMC4211652 (Biochemistry, 2014)
No end group written: not given here.

B1: Ca2+-bound S100B (bovine) covalently modified at Cys84 by SC124 (natural protein)
chain: MSELEKAVVALIDVFHQYSGREGDKHKLKKSELKELINNELSHFLEEIKEQEVVDKVMETLDSDGDGECDFQEFMAFVAMITTACHEFFEHE
modifications: Cys84 covalently bound to the adduct of SC124 (disulfiram)
B2: Ca2+-bound S100B (bovine) covalently modified at Cys84 by SC1982 (natural protein)
chain: MSELEKAVVALIDVFHQYSGREGDKHKLKKSELKELINNELSHFLEEIKEQEVVDKVMETLDSDGDGECDFQEFMAFVAMITTACHEFFEHE
modifications: Cys84 covalently bound to SC1982 (Rubescensin A) by Michael addition
B3: Ca2+-bound S100B (bovine) covalently modified at Cys84 by SBi4172 (natural protein)
chain: MSELEKAVVALIDVFHQYSGREGDKHKLKKSELKELINNELSHFLEEIKEQEVVDKVMETLDSDGDGECDFQEFMAFVAMITTACHEFFEHE
modifications: Cys84 covalently bound to SBi4172 (chelerythrine); the compound could be modelled in chain B only
B4: Ca2+-bound S100B (bovine) covalently modified at Cys84 by SC1475 (natural protein)
chain: MSELEKAVVALIDVFHQYSGREGDKHKLKKSELKELINNELSHFLEEIKEQEVVDKVMETLDSDGDGECDFQEFMAFVAMITTACHEFFEHE
modifications: Cys84 covalently bound to SC1475 (3,4-dimethoxydalbergione)
B5: Ca2+-bound S100B (bovine) covalently modified at Cys84 by SBi4434 (natural protein)
chain: MSELEKAVVALIDVFHQYSGREGDKHKLKKSELKELINNELSHFLEEIKEQEVVDKVMETLDSDGDGECDFQEFMAFVAMITTACHEFFEHE
modifications: Cys84 covalently bound to SBi4434 (2,3-bis[(2-hydroxyethyl)thio]-1,4-naphthoquinone), the thiol replacing one thioglycol moiety
B6: TAMRA-labeled peptide TRTK12 (peptide)
peptide: TRTKIDWNKILS
modifications: also: TAMRA label, position not given here

Target: the molecule itself
Assay: crystal structure

Q: Does B1 bind?
A: Result: binds

Q: Does B2 bind?
A: Result: binds

Q: Does B3 bind?
A: Result: binds

Q: Does B4 bind?
A: Result: binds

Q: Does B5 bind?
A: Result: binds

Each binder was assayed against T1, S100B (rat), Ca2+-loaded (rat, UniProt P04631 1-92) (assay: fluorescence polarisation).
T1 sequence: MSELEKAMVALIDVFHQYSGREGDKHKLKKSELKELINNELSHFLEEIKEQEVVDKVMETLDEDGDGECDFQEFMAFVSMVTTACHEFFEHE

Q: Does B6 bind?
A: Result: binds
